Publication PMC9947420

Biological target: GST-tagged PEX5-binding domain of X. laevis PEX14 (amino acids 19-78) (Xenopus laevis)
Test: SEC; Superdex 200 HiLoad 26/600 PG, XBHS buffer with 1 mM DTT; retention volume between 180 and 190 mL

- stoichiometry N: 2
Substance: GST-tagged PEX5-binding domain of X. laevis PEX14 (amino acids 19-78) (domain or fragment)
